We go through 2 molecules from patent US20240287489A1, “CHITINOLYTIC ENZYME-BASED PLANT PROTECTION AGENTS” (GLOBACHEM NV, priority 2021, published 2024).

Type in all cases: biochemical
The nature of data set [1]: TLC analysis of cleavage patterns with chitin standard molecules. To be noted: for hydrolysis products from chitin pentamers / hydrolysis products from chitin trimers: 4 mg/ml, 16 h, TLC; for cleavage mechanism (exo-/endo-chitinase activity): TLC of products from oligomeric or polymeric chitin substrates. How it is done:
monomeric oligomers. Chitosan was degraded to a crude mixture of multiple oligomers ranging from dimers to pentamers and even larger undefined yet water-soluble fragments that migrated slightly from the starting point. Further analysis of the cleavage patterns was carried out using chitin standard molecules of DP2-DP6 and incubating them at 4 mg/ml concentration with the individual enzymes (FIG. 9).
Dimeric chitin molecules were not converted by any of the enzymes. […] All chitinases degraded chitin tetramers to dimers as a single product. […] Chitin hexamers were degraded to dimers and trimers. Although all chitinases are different in their structure and present different glycosyl hydrolase domains hydrolysis products in general were similar.
C2, 4 and 5 yielded similar product patterns when incubated with insoluble substrates. […] The presented data underline that the novel chitinases are all suited for the degradation of powdery chitin without any further harsh chemical pre-treatment.
Hydrolysis products were analyzed using 10×10 cm TLC Silica gel 60 F254 plates (Merck, Darmstadt, Germany) and a mixture of butanol:methanol:25% ammonia:H2O (5:4:2:1) as mobile phase. A total sample volume of 0.5 μl was applied in 0.25 μl spots. Chitin standard sugars (Megazyme, Chicago, USA) (5 mg/ml) were applied to the plate (0.5 μL in 0.25 μL spots) as size standard for the determination of the DP. After separation, the plate was air-dried and the developing solution (200 ml Acetone, 30 ml phosphoric acid (85%), 4 ml aniline, 4 g diphenylamine) was sprayed on the plate followed by spot visualization at 300° C. using a heat gun.

Data set [2] is described as follows: Substrate specificity, reducing end assay. To be noted: in % activity of chitin powder; 16 h at optimum conditions, 50 mg/ml substrate. The procedure:
Different chitinous substrates were tested to assess the substrate affinity of the novel chitinases relative to untreated chitin powder. […] As expected, the conversion of colloidal chitin is more efficient compared to chitin powder as it provides an overall smaller particle size and thereby larger surface area. Chitosan powder (degree of acetylation: 15%) was also degraded efficiently and high chitosanase activity was observed especially for C1, C3, C4 and C5. Merely basal activity was detected when cellulose was utilized as a substrate for all enzymes.
Enzyme samples were incubated at different temperature (10-60° C., 10° C. increment) and pH (4-11, increment 1) using different buffer systems (Acetate, Tris-HCl, MES, total molar concentration 100 mM), as well as NaCl content (0, 1. 2.5, 5, 10 and 20% w/v) to determine optimum reaction conditions. All experiments were carried out at 1.0 ml scale using 2 μM of the respective enzymes and a 5% (wv) suspension of chitin powder extracted from shrimp shells (˜400.000 g/mol; Carl, Roth) in 100 mM MAT buffer. For the determination of the substrate specificity, chitin powder (5% w/v), glycol chitin (10% v/v), colloidal chitin (5% w/v), chitosan [DA 15-25%, medium molecular weight, Sigma-Aldrich] (5% w/v) and microcrystalline cellulose powder (Sigma Aldrich) (5% w/v) were investigated, respectively. The effect of several potential co-factors on activity was elucidated at a concentration of 1 mM. Additionally, the effect of detergents [SDS 0.5% (w/v), Tween-20 and Triton X-100 both at 0.5% (v/v)] and chemicals (Imidazole 100 mM, EDTA 1 mM) on enzymatic activity was assessed. Samples were incubated in a thermomixer for 16 h at 900 rpm. After incubation, samples were analyzed using the enzyme assay. Thermostability was assessed after incubation of recombinant chitinases at 60° C. for different durations followed by the quantification of residual enzyme activity under standard assay conditions.

Data set [3] in a line: Reducing end assay, specific chitinase activity of expression and purification fractions. To be noted: chitin powder, 16 h at 30° C. The procedure: Integrity and correctness of the constructs was confirmed by colony PCR and Sanger-sequencing. All constructs were transformed into E. coli BL21 and expressed recombinantly. Expression levels of the target enzymes were determined densitometrically after immunoblot detection for cytosolic and secreted expression. Enzymatic activity was determined for all samples using a reducing end assay. […] Furthermore, it was confirmed that these enzymes are efficiently released into the culture supernatant, rendering cell lysis unnecessary for future production cycles.
A two-step purification of the selected recombinant enzymes with PelB signal peptide form the culture supernatant was carried out with an initial ammonium sulfate precipitation step and a sequential IMAC purification of the solubilized protein precipitate. Elution fractions were pooled and an SDS-PAGE and immunoblot was prepared loading the same volume for each sample (FIG. 4). Expression levels of the five chitinases varied largely, and C1 was detected in much greater abundance relative to the others. […] The observed molecular weight of all enzymes in SDS-PAGE gel and immunoblot was not in accordance with the expected theoretical molecular weight taking into account that a 6×His tag was added C-terminally to the enzymes and in general, bands for all enzymes were detected at a higher molecular weight. For all samples, unspecific bands could detected at ˜25 kDa and ˜50 kDa after IMAC purification, most likely representing host cell protein-contaminations. The amount of protein in the culture media, ammonium sulfate concentrates and the final dialyzed elution fractions was determined using the BCA assay and the same fractions were incubated with chitin powder for 16 h at 30° C. followed by the quantification of reducing sugars to measure specific chitinase activity (Table 4.2). Thereby it was confirmed that all target enzymes were successfully enriched during purification according to the specific activity.
For the determination of enzymatic activity of recombinant chitinases, a reducing end assay was carried out [Svein et al., Carbohydr Polym, 2004. 56(1): p. 35-39.]. Fractions containing chitinases were incubated with 5% (w/v) chitin powder extracted from shrimp shells (˜400.000 g/mol; Carl Roth) in MAT buffer for 2 h in an overhead shaker at ambient temperature (standard conditions). Samples were centrifuged at 13000×g for 2 min and 40 μl of the supernatant was mixed with 40 μl 0.5 M NaOH and 40 μL of a reagent containing 1.5 mg/ml 3-Methyl-2-benzothiazolinonhydrazon and 0.75 mg/ml Dithiothreitol. Samples were incubated at 80° C. for 15 min and then thoroughly mixed with 80 μl of 0.5% (w/v) FeNH4(SO4)2)×12H2O, 0.5% (w/v) sulfamic acid and 0.25 M HCl. After cooling down to room temperature, 100 μl of the samples were measured at 620 nm. A calibration curve of N-acetyl-glucosamine was constructed freshly for each measuring cycle. One unit [U] was defined as the amount of enzyme required to release 1 μmol of reducing sugars per hour.

Where [4] appears, read: Dialysed elution fraction after IMAC.

B1: Chitinase 1: chitinolytic enzyme from P. orarium, SEQ ID NO: 1, recombinant with PelB signal peptide and 6×His tag; run 19 = 2 μM alone (protein, listed as Photobacterium orarium)
chain: MAAPGTPQIAWMETDYAIVEVDQAASAYKSLITVKPAAEVPVAWQRYSGETADLWKVKLNGNVVFEQSIAPASSGAGSTTLSVAQGGQYAMTVELCSGTGAAQACTSSAATNIVVADTDGSHLDPLPMNVDANNGNYTTPANTVVGAYFVEWGVYGRKFSVDNIPAQNLTHILYGFIPICGPNESLGEIENGNSLAALNRACQGTPDYEVVIHDPWAAVQMPQPQSGHTHSTPYKGTYGQMMALKQRYPDLKIVPSVGGWTLSDPFYSFTDKAKRDIFVASVKKFLKTWKFFDGVDIDWEFPGGKGANANLGDPVNDGPAYVALMRELRVMLDELEAETGRQYELTSAIGVGYDKIDVVNYADAVQYMDYIFAMTYDFFGGWNNVPGHQTALFCGSHMSADVCNGTGVDENGVPRQGPAYTAAHGIDRLLAQGVPANKLVLGTAMYARGWTGVTEASMTDPTNPMTGTGNGMVPGSWEPGVIDYKDVVTDYINNAAVTKGYDAQAEAPWAYNPSNGNLITYDDRRSVLAKGQYVRNLGLAGLFAWEIDADNGDILNAMQDSLAGGGGNYAPVAKAGADQVVNGAASVTLDGSASSDRDGQIVSYQWTQTSGPALTLTGSDTATATVAVPEVTADTQYAFTLTVTDNAGDTATDSVTVTAKAPGSNTAPVVAVSGPATASAGDTVVLDASQSSDADGDTLTFTWTVPAGVNATVNGATVSFVADSYTVDTPLNFTVAVSDGTDSVTESVTVTVLKDGGSTGCTNAWATGGVYNSGDIVTHSGKSWKAKWWTTGEEPGTTGEWGVWEDLGAANCQIE
modifications: PelB signal peptide; 6xHis tag; Chitinase 1
notes: run 19 = 2 μM alone
For the molecule B1, in data set [1], the “hydrolysis products from chitin pentamers” value is “dimers and monomers”; the “hydrolysis products from chitin trimers” value was “dimers and monomers”; the “cleavage mechanism (exo-/endo-chitinase activity)” value is given as “exo-chitinase activity”. Moreover, in data set [2], the “Relative activity, Cellulose” value is listed as 14.3 ± 5.7%; the “Relative activity, Chitin” value stood at 100%; the “Relative activity, Chitosan” value is listed as 117.1 ± 9.1%. Moreover, in data set [3] (Culture supernatant fraction), the Specific activity is recorded as 0.10 U/mg. For the same molecule, the Specific activity in data set [3] (setting [4]) is recorded as 3.52 U/mg.

B2: Chitinase 3: chitinolytic enzyme from P. orarium, SEQ ID NO: 3, recombinant with PelB signal peptide and 6×His tag (protein, listed as Photobacterium orarium)
chain: MALAAPGTPQLAWMETDYAIVEVDQAATAYKDLVTVKNAADVPVAWQRYSGETADHWKVKLNGNVAFEESINPASSGAGSTTLSITQGGQYALTVELCSGSGAEEACSSSPATNIVVADTDGSHLDPLPMNVDPNNGTYSTPADTVVGAYFVEWGVFGRKFTVDKIPAQNLTHILYGFIPVCGPNESLGEIESGNSLAALNRACAGTPDFEVAIHDPWAAVQMPQPQSGHTYSTPYKGNYGQLMALKQRYPDLKVIPSIGGWTLSDPFFSFTDKSKRDVFVASVKKFLQTWKFFDGVDIDWEFPGGKGANTTLGDPVNDGPAYVALMRELRTMLDGLEAETGRQFELTSAIGVGYDKIDVVNYAEASQYMDYIFNMSYDFYGGWSNVTGHQTALNCGSHLTADQCNGTGVDENGEPRQGPAYTTAHGVERLLAQGVPANKLVVGAAMYGRGWTGVTQASMTDPSNPMTGVGNGAVAGSWEAGVIDYKDVVTRYENKAGVVLGYDEQAEAPWAYDPSNGDLVTYDSPRSIMAKGQYVRDLGLAGLFAWEIDADNGDILNAMQESLAGAPAGNRAPVARAGSDQQVNTAATVTLNGSSSTDSDGQIAGYQWVQTSGPALTLNGANTASATISVPDVTVDTQYVFTLTVTDNEGATATDSITVTAKAPGAQNTAPVASLTGPGTANADDVITLDASQSTDADGDTLTYDWTVPAGVNAVINGSSLSFTADSYTTDTALSFSVSVSDGTASDAASLTVTIAKDESGTGGEGDFPAYVEGTAYQAGDQVSNGGVNFECKPYPYSGWCSGAAWAYEPGVGVYWQDAWTQLIE
modifications: PelB signal peptide; 6xHis tag; Chitinase 3
As for B2, in data set [1], the “hydrolysis products from chitin pentamers” value was “dimers and monomers”; the “hydrolysis products from chitin trimers” value is “dimers and monomers”; the “cleavage mechanism (exo-/endo-chitinase activity)” value is listed as “exo-chitinase activity”. For the same molecule, in data set [2], the “Relative activity, Cellulose” value came to 9.4 ± 0.9%; the “Relative activity, Chitin” value was 100%; the “Relative activity, Chitosan” value was determined as 113.4 ± 9.0%. For the same molecule, in data set [3] (Culture supernatant fraction), the Specific activity is recorded as 0.13 U/mg. Also, the Specific activity in data set [3] (setting [4]) is listed as 8.13 U/mg.
